Measurements from US20230038638A1, “COMPLEMENT FACTOR I-RELATED COMPOSITIONS AND METHODS” (published 2023).

How the values were obtained:
human C4b (human) = target: T1, human C4b (human) (UniProt P0C0L5)
T1 sequence: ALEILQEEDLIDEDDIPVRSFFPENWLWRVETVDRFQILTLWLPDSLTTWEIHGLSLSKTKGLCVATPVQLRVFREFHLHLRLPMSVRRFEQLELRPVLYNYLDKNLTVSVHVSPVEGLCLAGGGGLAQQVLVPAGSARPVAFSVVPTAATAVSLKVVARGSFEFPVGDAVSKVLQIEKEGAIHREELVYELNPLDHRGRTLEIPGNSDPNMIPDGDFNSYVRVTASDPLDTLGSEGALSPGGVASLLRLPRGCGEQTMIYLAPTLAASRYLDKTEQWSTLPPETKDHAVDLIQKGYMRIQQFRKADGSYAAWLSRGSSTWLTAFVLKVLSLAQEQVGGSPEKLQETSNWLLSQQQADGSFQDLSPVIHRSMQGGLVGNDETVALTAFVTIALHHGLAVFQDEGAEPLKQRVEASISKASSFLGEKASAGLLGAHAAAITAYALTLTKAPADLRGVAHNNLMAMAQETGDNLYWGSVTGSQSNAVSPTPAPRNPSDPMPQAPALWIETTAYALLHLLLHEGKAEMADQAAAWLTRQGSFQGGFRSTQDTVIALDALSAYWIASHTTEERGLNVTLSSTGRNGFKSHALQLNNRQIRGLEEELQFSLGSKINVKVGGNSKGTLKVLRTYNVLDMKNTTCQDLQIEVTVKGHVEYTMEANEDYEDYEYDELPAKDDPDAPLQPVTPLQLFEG

[1] = target: soluble human C3b (human) (UniProt P01024)

| Substance | C4b Screen Ref Fold (fold vs CFI-HSA wild type) (human C4b (human)) | iC3b Screen Ref Fold (fold vs CFI-HSA wild type) [1] |
| --- | --- | --- |
| CFI-HSA R365W (enzyme) | 0.24 | 0.89 |
| CFI-HSA R365Y (enzyme) | 0.63 | 0.74 |
| CFI-HSA R371G (enzyme) | 0.15 | 0.17 |
| CFI-HSA R456G (enzyme) | 0.04 | 0.03 |
| CFI-HSA R484G (enzyme) | 0.64 | 0.77 |
| CFI-HSA R557D (enzyme) | 0.5 | -0.01 |
| CFI-HSA R557E (enzyme) | 1.15 | -0.02 |
| CFI-HSA R557F (enzyme) | 2.13 | 0.12 |
| CFI-HSA R557G (enzyme) | 1.61 | 0.04 |
| CFI-HSA R557H (enzyme) | 2.44 | 0.11 |
| CFI-HSA R557I (enzyme) | 3.27 | 0.16 |
| CFI-HSA R557L (enzyme) | 2.27 | 0.15 |
| CFI-HSA R557M (enzyme) | 2.48 | 0.16 |
| CFI-HSA R557N (enzyme) | 1.87 | 0.05 |
| CFI-HSA R557P (enzyme) | 3 | 0.04 |
| CFI-HSA R557Q (enzyme) | 2.12 | 0.08 |
| CFI-HSA R557S (enzyme) | 1.11 | 0.1 |
| CFI-HSA R557T (enzyme) | 1.63 | 0.09 |

| Substance | C4b Screen Ref Fold (fold vs CFI-HSA wild type) (human C4b (human)) | iC3b Screen Ref Fold (fold vs CFI-HSA wild type) [1] |
| --- | --- | --- |
| CFI-HSA R557V (enzyme) | 2.23 | 0.21 |
| CFI-HSA R557W (enzyme) | 2.36 | 0.12 |
| CFI-HSA R557Y (enzyme) | 3.23 | 0.21 |
| CFI-HSA S343G (enzyme) | 0.92 | 1.32 |
| CFI-HSA S527G (enzyme) | 0.09 | 0.16 |
| CFI-HSA T377G; E457G (enzyme) | 4.38 | 2.31 |
| CFI-HSA T377G; E457G; E461Q (enzyme) | 3.75 | 2.27 |
| CFI-HSA T377G; E457G; E461Q; N531G (enzyme) | 4.73 | 1.57 |
| CFI-HSA T377G; E461Q (enzyme) | 3.17 | 2.82 |
| CFI-HSA T377G; N531G (enzyme) | 4.53 | 2.34 |
| CFI-HSA V526G (enzyme) | 0.03 | -0.01 |
| CFI-HSA V540G (enzyme) | 0.01 | 0.03 |
| CFI-HSA W528G (enzyme) | 0.01 | -0.05 |
| CFI-HSA Y408L; D425R; E530Y (enzyme) | 1.05 | 1.95 |
| CFI-HSA Y408L; E457G; D425R; E530Y (enzyme) | 1.68 | 1.74 |
| CFI-HSA Y408L; E457G; E461Q; R462K; N531G; GGSSGG (SEQ ID NO: 6); CR1 (ccp15-17) (from UniProt P17927) (enzyme) | 1.84 | 0.18 |
| CFI-HSA Y408L; E457G; E461Q; R462K; N531G; R557A (enzyme) | 3.22 | 1.29 |
| CFI-HSA Y408L; E457G; E461Q; R462K; N531G; R557K (enzyme) | 4.01 | 1.14 |
